This test deals with maltose-binding protein fragment MBP198–265 [MBP: P0AEX9]. The test can be described thus: ITC; iTC200, 22 °C; 350 μM MBP198–265 in the cell, 3.5 mM TF^PPD-SBD in the syringe; 20 mM potassium phosphate pH 7.0, 100 mM KCl, 0.05% NaN3.

For “trigger factor tandem domain TF^PPD-SBD (from UniProt P0A850 113-246) (domain or fragment)”, the Kd stood at 47 µM and the dH was -24.7 kJ/mol.

Broadly, the Kd is a measure of binding affinity in units of concentration. The low end stands for higher affinity, the high end for lower affinity.

For the origin of these results see PMC6166725.
